Test [1] has as its target staphylococcal protein A ligand of the BabyBio A column (Bio-Works) (staphylococcal (so in the source)). As to the kind of experiment: affinity chromatography; dynamic binding capacity at 10% breakthrough; 1 mL columns of peptide-coupled agarose or BabyBio A; 1 mg/mL infliximab in 0.01% PBST pH 7.4 loaded at 0.5 mL/min; elution with 20 mM glycine-HCl pH 3.0 (peptide resins) or 100 mM Na-citrate pH 3.0 (BabyBio A).

Test [2] has as its target polyclonal human IgG (Octagam, Octapharma) (human). Briefly: ELISA; phage ELISA; MaxiSorp wells coated with human polyclonal IgG (Octagam, 5 µg/mL), blocked with skimmed milk; peptide-displaying phagemid virions in solution, 2 × 10^9 virions per well or serial dilutions from 2.5 × 10^10 to 1.95 × 10^8 virions per well; detection with HRP-conjugated anti-M13 antibody and TMB; triplicate. (In an ELISA, binding on a coated surface is turned into a signal by an enzyme label.)

Amount of infliximab in the eluate, dynamic binding capacity and fold higher estimated affinity than the parent peptide min19Fc-Q6D data for two molecules are collected here from article PMC8173005.

In test [1], “infliximab (Remsima, Celltrion) (antibody)” showed an amount of infliximab in the eluate of 41.2 mg and a dynamic binding capacity at 10% breakthrough of 41.3 mg/mL. Regarding GSYWYNVWF [peptide A displayed on pIT2-SL phagemid virions], in test [2], the fold higher estimated affinity than the parent peptide min19Fc-Q6D was 16 fold.
